Results reported in publication PMC3375269 (2012).

T1: alpha1A-adrenoceptor (Homo sapiens, UniProt P35348)
T1 chain: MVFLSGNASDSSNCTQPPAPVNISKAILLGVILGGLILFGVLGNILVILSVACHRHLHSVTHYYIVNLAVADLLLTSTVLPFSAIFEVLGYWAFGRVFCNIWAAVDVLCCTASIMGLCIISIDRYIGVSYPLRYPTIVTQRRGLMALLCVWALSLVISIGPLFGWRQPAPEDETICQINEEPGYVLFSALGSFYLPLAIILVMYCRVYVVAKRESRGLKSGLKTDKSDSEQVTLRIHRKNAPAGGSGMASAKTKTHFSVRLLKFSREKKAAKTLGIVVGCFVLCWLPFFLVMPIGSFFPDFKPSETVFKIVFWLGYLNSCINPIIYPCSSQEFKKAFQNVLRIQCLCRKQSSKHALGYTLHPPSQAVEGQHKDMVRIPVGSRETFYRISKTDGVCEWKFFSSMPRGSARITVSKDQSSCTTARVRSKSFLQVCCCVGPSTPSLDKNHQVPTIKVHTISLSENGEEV

T2: Muscarinic acetylcholine receptor M4 (Homo sapiens, UniProt P08173)
T2 chain: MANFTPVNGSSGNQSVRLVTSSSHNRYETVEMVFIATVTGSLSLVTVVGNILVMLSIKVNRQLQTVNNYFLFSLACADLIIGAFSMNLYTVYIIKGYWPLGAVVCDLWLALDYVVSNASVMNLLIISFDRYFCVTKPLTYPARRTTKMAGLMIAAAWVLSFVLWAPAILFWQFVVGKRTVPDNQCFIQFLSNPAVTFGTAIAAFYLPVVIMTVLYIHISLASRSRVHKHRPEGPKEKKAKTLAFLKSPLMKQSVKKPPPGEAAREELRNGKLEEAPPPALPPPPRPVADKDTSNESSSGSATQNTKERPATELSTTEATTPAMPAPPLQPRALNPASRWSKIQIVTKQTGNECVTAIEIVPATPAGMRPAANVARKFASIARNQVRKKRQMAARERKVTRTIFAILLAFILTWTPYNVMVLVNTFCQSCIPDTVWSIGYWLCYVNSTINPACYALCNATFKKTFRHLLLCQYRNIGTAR

T3: Muscarinic acetylcholine receptor M1 (Homo sapiens, UniProt P11229)
T3 chain: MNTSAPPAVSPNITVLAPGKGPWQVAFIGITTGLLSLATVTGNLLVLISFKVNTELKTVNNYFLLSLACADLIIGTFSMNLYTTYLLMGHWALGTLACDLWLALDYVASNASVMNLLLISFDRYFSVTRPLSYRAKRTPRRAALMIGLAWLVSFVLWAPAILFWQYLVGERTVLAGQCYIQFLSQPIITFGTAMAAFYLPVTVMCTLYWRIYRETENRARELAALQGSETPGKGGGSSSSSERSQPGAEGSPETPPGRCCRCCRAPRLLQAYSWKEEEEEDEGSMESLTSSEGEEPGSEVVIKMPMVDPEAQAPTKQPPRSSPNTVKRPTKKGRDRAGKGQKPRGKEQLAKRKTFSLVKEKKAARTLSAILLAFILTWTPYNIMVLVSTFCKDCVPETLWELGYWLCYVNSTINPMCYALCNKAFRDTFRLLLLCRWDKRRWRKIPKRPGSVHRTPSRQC


Legend:
alpha1A-adrenoceptor = molecular target: T1, alpha1A-adrenoceptor; assay: [3H]-Prazosin equilibrium inhibition binding
[1] = molecular target: T2, Muscarinic acetylcholine receptor M4; assay: [3H]-NMS equilibrium inhibition binding
[2] = molecular target: T3, Muscarinic acetylcholine receptor M1; assay: [3H]-NMS equilibrium inhibition binding

Row | Binder | Ki (alpha1A-adrenoceptor) | Ki [1] | Ki [2]
1 | Muscarinic toxin 1 (MT1) (protein) LTCVTSKSIFGITTENCPDGQNLCFKKWYYIVPRYSDITWGCAATCPKPTNVRETIRCCETDKCNE | 62 nM | 310 nM | 24 nM
2 | Muscarinic toxin 7 (MT7) (protein) LTCVKSNSIWFPTSEDCPDGQNLCFKRWQYISPRMYDFTRGCAATCPKAEYRDVINCCGTDKCNK | > 20000 nM | 13000 nM | 0.034 nM
